Drawing on patent US20200165313A1, “EGF(A) ANALOGUES, PREPARATION, FORMULATIONS AND USES THEREOF” (Novo Nordisk A/S, priority 2017, published 2020), this text covers Percentage of baseline for one substance.

The target in the experiment is T1, hPCSK9 (Homo sapiens, UniProt Q8NBP7).
T1 construct: purchased Sino Biologicals, China
Briefly: hPCSK9 challenge model (hepatic LDL-R expression in mice, Western Blot). Format: in vivo, mouse. Conditions: healthy control 100%, hPCSK9 alone 0%, dose of inhibitor 22 nmol/kg.

T1 sequence (Q8NBP7 153-692): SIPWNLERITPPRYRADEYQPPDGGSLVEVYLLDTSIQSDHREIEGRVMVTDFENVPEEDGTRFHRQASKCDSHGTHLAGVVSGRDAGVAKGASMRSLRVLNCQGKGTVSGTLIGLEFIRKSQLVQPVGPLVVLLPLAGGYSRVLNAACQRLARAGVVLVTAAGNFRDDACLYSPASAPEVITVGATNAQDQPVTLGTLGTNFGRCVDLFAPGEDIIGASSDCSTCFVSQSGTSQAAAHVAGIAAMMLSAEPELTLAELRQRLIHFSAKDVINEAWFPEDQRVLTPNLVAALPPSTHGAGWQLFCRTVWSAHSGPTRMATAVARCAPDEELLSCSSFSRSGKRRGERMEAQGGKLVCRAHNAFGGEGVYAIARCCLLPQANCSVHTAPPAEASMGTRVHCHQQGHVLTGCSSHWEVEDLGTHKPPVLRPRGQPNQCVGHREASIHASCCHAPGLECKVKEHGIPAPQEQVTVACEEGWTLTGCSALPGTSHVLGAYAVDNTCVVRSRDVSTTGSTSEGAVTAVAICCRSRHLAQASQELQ
Description: The aim of this study was to show the change in the LDL receptor expression level in mouse liver in response to inhibiting the action of intravenously injected hPCSK9 with an anti-PCSK9 peptide.
Healthy male BalBC or NMRI mice (Charles River, Germany) are injected with an anti-PCSK9 peptide, either s.c. or i.v. 15-120 minutes before injecting hPCSK9 (Sino Biologicals, China) intravenously in the tail vein at a dose of 0.4 mg/kg. Sixty minutes after the injection of hPCSK9, the animals are anaesthetised in isoflurane and euthanised by cervical dislocation. The liver is then quickly excised and snapfrozen in liquid nitrogen. The livers are kept at −80 degrees celsius until analysis.
The proteins were transferred to nitrocellulose membranes (iBlot 2 NC Regular stacks, novex # IB23001) according to manufacturer's instructions (Life Technology). Equal protein transfer was confirmed by Ponceau S (Sigma, P7170) staining of the membranes and the membranes were further blocked in blocking buffer (TBS-T, 2% Tween). […] Quantitative analysis of chemiluminescent signals from Western blots was done with MultiGauge software (Fujifilm).
“Vehicle-vehicle” is the group of healthy controls (baseline level), “vehicle-hPCSK9” is the group injected with hPCSK9 alone.

The substance “Alirocumab: anti-PCSK9 antibody, control molecule in the hPCSK9 challenge model” showed a Percentage of baseline of 157%.
